*: point of attachment. Palmitoyl = CCCCCCCCCCCCCCCC(=O)*; K(Dye 2) = not defined here; code O = not defined here
How the values were obtained:
[1] = Total charge of substrate molecule and charge-balance molecule; type: physicochemical
Description: FIG. 6B illustrates an exemplary charge-balance molecule (i.e. C16ArgArgOOOArgArgIleTyrGlyArgPheNH2, wherein OOO represents the optional O-spacers) that can be used balance the charge of the substrate molecule illustrated in FIG. 6A. The substrate molecule illustrated in FIG. 6A comprises a fluorescent moiety containing a sulfonate anion with a charge of ^−2. The substrate molecule illustrated in FIG. 6A further comprises a substrate moiety comprising three glutamate residues, each with a −1 charge. Thus, the total negative charge of the substrate molecule illustrated in FIG. 6A is ^−5 at physiological pH. […] The total positive charge of the charge-balance molecule illustrated in FIG. 6B is ^+5 at pH 7.6. Thus, the net charge of the compound comprising the substrate molecule illustrated in FIG. 6A and the charge-balance molecule illustrated in FIG. 6B is approximately zero at pH 7.6.

tyrosine kinase Lyn = tyrosine kinase Lyn (Homo sapiens, UniProt P07948); experiment: Detection of protein kinase activity (fluorogenic micelle assay); type: biochemical; conditions: 2 μM substrate molecule, 2 μM charge-balance molecule, 0 or 100 μM ATP, 5 nM Lyn; FIG. 8
Chain of tyrosine kinase Lyn (P07948 whole entry): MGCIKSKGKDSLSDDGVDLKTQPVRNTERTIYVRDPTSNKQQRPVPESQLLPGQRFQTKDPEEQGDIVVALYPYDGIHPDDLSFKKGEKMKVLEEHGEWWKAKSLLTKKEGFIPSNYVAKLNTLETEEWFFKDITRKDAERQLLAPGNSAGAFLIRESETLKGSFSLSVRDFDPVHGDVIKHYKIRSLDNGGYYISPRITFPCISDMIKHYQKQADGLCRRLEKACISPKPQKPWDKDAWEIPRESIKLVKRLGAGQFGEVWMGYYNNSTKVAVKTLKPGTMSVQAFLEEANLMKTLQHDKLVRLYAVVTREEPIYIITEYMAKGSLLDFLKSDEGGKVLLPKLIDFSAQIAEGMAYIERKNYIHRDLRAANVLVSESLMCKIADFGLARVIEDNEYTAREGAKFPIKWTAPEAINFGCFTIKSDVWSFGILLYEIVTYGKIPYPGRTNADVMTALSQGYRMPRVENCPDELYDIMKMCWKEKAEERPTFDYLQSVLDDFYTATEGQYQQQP
Procedure: Kinase assays were performed using Corning 384-well, black, non-binding surface (NBS), microwell plates. Fluorescence was read in real time using a Molecular Dynamics Gemini XS plate reader, with excitation and emission set at 500 and 550 respectively. The plate was read every minute for one hour at ambient temperature.
Concentrations of the substrate molecule C16Lys(Dye 2)OOOGluGluIleTyrGlyGluPheNH2 and charge-balance molecule C16ArgArgOOOArgArgIleTyrGlyArg PheNH2 were determined by dilution of the purified peptides into dimethylformamide (200 µL) with 1 M NaOH (5 µL) and measuring the absorbance of 5-carboxy-2′,7′-dipyridyl-sulfonefluorescein (Dye2) at its absorbance maximum (548 nm). The extinction coefficient of Dye2 was assumed to be 80,000 cm1M-1.
A reaction solution was prepared containing the substrate molecule C16Lys(Dye 2)OOOGluGluIleTyrGlyGluPheNH2 (2 μM), and charge-balance molecule C16ArgArgOOOArgArgIleTyrGlyArg PheNH2 (2 μM), 20 mM Tris buffer, pH 7.6, MgCl2 (5 mM), DTT (5 mM) and Lyn (5 nM). The solution was pipetted into wells of a 384-well plate ([…] per well). ATP (0 or 100 μM) was added to initiate the kinase reaction. The plate was read at 500 nm excitation, 550 nm emission, each minute for 1 hour.

[2] = system: T1, substrate molecule C16Lys(Dye 2)OOOGluGluIleTyrGlyGluPheNH2
T1 sequence: KEEIYGEF

## C16ArgArgOOOArgArgIleTyrGlyArgPheNH2 ({Palmitoyl-Arg-Arg-code O-code O-code O}-RRIYGRF-NH2; reading uncertain; also: printed as C16ArgArgOOOArgArgIleTyrGlyArgPheNH2) [charge-balance molecule balancing the charge of the substrate molecule; OOO = O-spacers]
[1]; pH 7.6
  total positive charge: +5

## C16Lys(Dye 2)OOOGluGluIleTyrGlyGluPheNH2 ({Palmitoyl-K(Dye 2)-code O-code O-code O}-EEIYGEF-NH2; reading uncertain; also: printed as C16Lys(Dye 2)OOOGluGluIleTyrGlyGluPheNH2) [substrate molecule for tyrosine kinase Lyn; OOO = O-spacers, Dye2 = 5-carboxy-2′,7′-dipyridyl-sulfonefluorescein]
Tyrosine kinase Lyn
  fluorescence change on addition of tyrosine kinase Lyn: increase in fluorescence over time
[1]; physiological pH
  total negative charge: −5

## tyrosine kinase Lyn
[2]
  fluorescence over time (rate of the kinase reaction, 0 or 100 µM ATP): The addition of tyrosine kinase Lyn to the micelle comprising the substrate molecule and charge-balance molecule cause an increase in fluorescence over time.
